Assay results taken from article doi:10.1101/2024.10.17.618658.

What was measured:
[1] = target: human Juno glycosylated ectodomain (ECD), wild type, with C-terminal SpyTag (human) (UniProt A6ND01); test: flow cytometry-based bead-binding assay
[2] = target: human Juno ectodomain, infertility-associated variant H177Q, with C-terminal SpyTag (human) (UniProt A6ND01); test: AFM-based single-molecule force spectroscopy
[3] = target: human Juno glycosylated ectodomain (ECD), wild type, with C-terminal SpyTag (human) (UniProt A6ND01); test: AFM-based single-molecule force spectroscopy
[4] = target: human Juno ectodomain, infertility-associated variant H177Q, with C-terminal SpyTag (human) (UniProt A6ND01); test: flow cytometry-based bead-binding assay

Kd [1] [nM]	average median peak bond lifetime under clamped force (40-50 pN) [2] [s]	median bond lifetime under clamped force (before the slip-to-catch transition) [3] [s]	median bond lifetime under clamped force (peak of the catch bond, 40-50 pN) [3] [s]	Kd [4] [nM]	Substance
110					human Izumo1 ectodomain K150A with C-terminal SpyTag (from UniProt Q8IYV9 22-292) (domain or fragment)
45	0.17	0.02	0.15	64	human Izumo1 glycosylated ectodomain (ECD), wild type, with C-terminal SpyTag (from UniProt Q8IYV9 22-292) (domain or fragment)
